Drawing on publication PMC7247208, “A cell suspension based uptake method to study high affinity glucosinolate transporters” (Plant Methods, 2020), this text covers Km and Vmax for two proteins.

Holding throughout (settings): pH 5, MSOT3 without nitrate salts, 1 h uptake, transport
Substrate in data set [1]: O=S(=O)(O)O/N=C(/Cc1ccc(O)cc1)S[C@@H]1O[C@H](CO)[C@@H](O)[C@H](O)[C@H]1O
Kind of data set: cells, lysate or membranes.

Substrate in data set [2]: C=CC/C(=N/OS(=O)(=O)O)S[C@@H]1O[C@H](CO)[C@@H](O)[C@H](O)[C@H]1O
Description: uptake into CCL-1 cotton suspension cells, HPLC of desulfoglucosinolates, Michaelis-Menten fit. Format: cell-based, Arabidopsis thaliana.

Substrate in data set [3]: C=CCC/C(=N\OS(=O)(=O)O)S[C@@H]1O[C@H](CO)[C@@H](O)[C@H](O)[C@H]1O
Described as above. Format: cell-based, Arabidopsis thaliana.

B1: AtGTR1 (Arabidopsis thaliana) (protein)
chain: MKSRVILNHRDRRDKNHNNNNTNHYTQVDTMERKPLEVEPSTTTTNTDVVDSFEEEQRKIVYRGWKVMPFIIGNETFEKLGIIGTLSNLLVYLTSVFNLKSYTAATIINAFSGTINFGTFIAAFLCDTYFGRYKTLSVAVIACFLGSFVILLTAAIPSLHPVACGNKISCEGPSVGQILFLLMGLGFLVVGAGGIRPCNLAFGADQFNPKSESGKKGINSFFNWYFFTFTFAQIISLTAVVYIQSNVSWTIGLIIPVALMFLACVIFFAGDRLYVKVKASGSPLAGIARVIAAAIKKRGLKPVKQPWVNLYNHIPSNYANTTLKYTDQFRFLDKAAIMTPEEKLNSDGTASDPWKLCTLQQVEEVKCIVRVIPIWFASTIYYLAITIQMTYPVFQALQSDRRLGSGGFRIPAATYVVFLMTGMTVFIIFYDRVLVPSLRRVTGLETGISLLQRIGAGFTFAIMSLLVSGFIEERRRNFALTKPTLGMAPRTGEISSMSALWLIPQLTLAGIAEAFAAIGQMEFYYKQFPENMKSFAGSIFYVGAGVSSYLASFLISTVHRTTAHSPSGNWLAEDLNKAKLDYFYFMLTGLMVVNMAYFLLMARWYRYKGGNDEDITEIETNEEETKQQQLQDKNSV
notes: full-length CDS from Col-0 leaf cDNA, untagged, pEarleyGate100 (CaMV35S), stably expressed in cotton CCL-1 cells; C-terminal YFP fusion only for localization
B1: the Km in data set [1] was 104.5 ± 56 µM; in data set [2], 117.9 ± 44 µM; in data set [3] it was 279.1 ± 109 µM. Moreover, the Vmax in data set [1] worked out at 5e-07 µmol/min/mg; in data set [2], 5e-07 µmol/min/mg; in data set [3] it was 3.4e-06 µmol/min/mg.

B2: AtGTR2 (Arabidopsis thaliana) (protein)
chain: MERKPLELESTDNHQNPSSAVYGGSVTAVDSVEEDVQNQKKVVYRGWKVMPFIIGNETFEKLGIIGTLSNLLVYLTAVFNLKSITAATIINAFSGTINFGTFVAAFLCDTYFGRYKTLSVAVIACFLGSFVILLTAAVPQLHPAACGTAADSICNGPSGGQIAFLLMGLGFLVVGAGGIRPCNLAFGADQFNPKSESGKRGIDSFFNWYFFTFTFAQILSLTLVVYVQSNVSWTIGLTIPAVLMFLACLIFFAGDKLYVKIKASGSPLAGIAQVIAVAIKKRGLKPAKQPWLNLYNYYPPKYANSKLKYTDQFRFLDKAAILTPEDKLQPDGKPADPWKLCTMQQVEEVKCIVRVLPIWFASSIYYLTITQQMTYPVFQALQSDRRLGSGGFVIPAATYVVFLMTGMTVFIVVYDRVLVPTMRRITGLDTGITLLQRIGTGIFFATASLVVAGFVEERRRTFALTKPTLGMAPRKGEISSMSAMWLIPQLSLAGVAEAFAAIGQMEFYYKQFPENMRSFAGSIFYVGGGVSSYLGSFLIATVHRTTQNSSGGNWLAEDLNKGRLDLFYFMIAGILAVNFAYFLVMSRWYRYKGSDDEVTTYETNENIIKQQDKNVA
notes: as for B1
For B2, the Km in data set [1] amounted to 166.7 ± 40 µM; in data set [2], 436.7 ± 154 µM; in data set [3], 153.3 ± 59 µM. In addition, the Vmax is 1.2e-06 µmol/min/mg in data set [1], 4.6e-06 µmol/min/mg in data set [2] and 2.9e-06 µmol/min/mg in data set [3].
